Results as given in PMC10953500.
pKd: −log10 of the molar value.

Experiments:
[1] = molecular target: receptor binding domain (RBD) of the SARS-CoV-2 spike protein with C-terminal 6xHis-tag (SARS-CoV-2) (UniProt P0DTC2); experiment: SPR
[2] = molecular target: recombinant CD89 (Fc-alpha receptor, FcαRI) with C-terminal His-tag (UniProt P24071); experiment: SPR
recombinant CD89 (Fc-alpha receptor, FcαRI) with C-terminal His-tag, sequence (P24071 22-227): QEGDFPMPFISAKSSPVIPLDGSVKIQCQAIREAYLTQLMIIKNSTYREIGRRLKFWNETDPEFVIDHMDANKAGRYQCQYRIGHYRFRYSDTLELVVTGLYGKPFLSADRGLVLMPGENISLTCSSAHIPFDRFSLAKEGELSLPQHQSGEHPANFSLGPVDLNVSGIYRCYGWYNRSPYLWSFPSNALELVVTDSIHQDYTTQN

COVA2-15 IgA1 produced in N. benthamiana wildtype ("WT"), sequence (P01876 whole entry, looked up, tested part not stated): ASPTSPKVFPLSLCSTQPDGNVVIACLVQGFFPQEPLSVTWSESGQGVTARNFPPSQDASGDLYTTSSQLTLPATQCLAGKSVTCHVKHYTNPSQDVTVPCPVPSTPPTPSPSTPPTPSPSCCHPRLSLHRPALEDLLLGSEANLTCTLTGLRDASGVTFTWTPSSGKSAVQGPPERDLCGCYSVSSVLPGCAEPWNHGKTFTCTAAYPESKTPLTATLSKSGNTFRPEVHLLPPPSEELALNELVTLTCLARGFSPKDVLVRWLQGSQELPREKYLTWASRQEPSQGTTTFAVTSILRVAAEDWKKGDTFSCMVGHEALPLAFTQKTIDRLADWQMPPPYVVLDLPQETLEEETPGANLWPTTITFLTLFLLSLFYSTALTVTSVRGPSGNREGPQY
COVA2-15 IgA1 produced in HEK293-6E cells ("HEK"), sequence (P01876 whole entry, looked up, tested part not stated): as above
COVA2-15 IgA1 produced in the H10-KO line co-infiltrated with GalNAc-T2 and C1GalT1 ("H10+O"), sequence (P01876 whole entry, looked up, tested part not stated): as above
COVA2-15 IgA1 produced in the NbP4H10 knockout line pB109-1C ("H10-KO"), sequence (P01876 whole entry, looked up): as the sequence (P01876 whole entry, looked up, tested part not stated) above

Row | Substance | pKd [1] | pKd [2]
1 | COVA2-15 IgA1 produced in the H10-KO line co-infiltrated with GalNAc-T2 and C1GalT1 ("H10+O") (from UniProt P01876) | 8.90 | 7.50
2 | COVA2-15 IgA1 produced in HEK293-6E cells ("HEK") (from UniProt P01876) | 9.07 | 7.44
3 | COVA2-15 IgA1 produced in N. benthamiana wildtype ("WT") (from UniProt P01876) | 8.82 | 7.18
4 | COVA2-15 IgA1 produced in the NbP4H10 knockout line pB109-1C ("H10-KO") (from UniProt P01876) | 8.88 | 7.21
